B1: pseudorabies virus (PrV) assemblin pUL26N, protease domain of pUL26, residues 1-224 (enzyme)
chain: MGPVYVSGYLALYDRDGGELALTREIVAAALPPAGPLPINIDHRPRCDIGAVLAVVDDDRGPFFLGVVNCPQLGAVLARAVGPDFFGDMRLSDEERLLYLLSNYLPSASLSSRRLAPGEAPDETLFAHVALCVIGRRVGTIVVYDASPEAAVAPFRQLSARARSELLARAAESPDRERVWHMSEEALTRALLSTAVNNMLLRDRWELVAARRREAGVRGHTYLQ
notes: also called PrV protease; VP24
B2: diisopropyl fluorophosphate-inhibited pseudorabies virus (PrV) assemblin pUL26N, residues 1-224 (enzyme)
chain: B1 chain

Columns and labels:
[1] = target: the molecule itself; experiment: small-angle X-ray scattering (SAXS)
crystal structure = target: the molecule itself; experiment: crystal structure

Row | Protein | stoichiometry N [1] | stoichiometry N (crystal structure)
1 | B1 | 2 | –
2 | B2 | – | 2

— publication PMC4498786, “Dimerization-Induced Allosteric Changes of the Oxyanion-Hole Loop Activate the Pseudorabies Virus Assemblin pUL26N, a Herpesvirus Serine Protease” (PLoS Pathogens, 2015)
